Results from patent US8986682B2, “Method to increase the absorption of unsaturated fatty acids by human infants” (Swedish Orphan Biovitrum AB (publ), priority 2010, dated 2015).
Where “and” joins values, the source holds several entries; their conditions need not be identical. Equal entries are not always repeated. Marks after values point to notes of the source that are not given here.

System: preterm infants born before week 32 of gestational age
Assay: Coefficient of fat absorption (CFA), fat balance of food and stool by gas chromatography, studies BVT.BSSL-020/-021
Type: in vivo, human
Details: PP
Protocol: Patients were randomized to infant formula/pasteurized breast milk supplemented with rhBSSL at a final concentration of 0.15 g/L, or to infant formula/pasteurized breast milk “supplemented” with sterile water for injection (as placebo) for the first 7 days. After a washout period of 2 days, the patient was “crossed over” to the other treatment regimen during a second 7-day treatment period. Collection of feces samples for CFA assessment were performed during the last 3 days (72 hours) of each treatment period.
The collection of feces for the determination of CFA was performed over a period corresponding to the fat, i.e., formula or milk, ingestion during 72 hours toward the end of each treatment period. Diapers supplied to each site were used for feces collection. During the two treatment periods, a carmine red tracer dye was given as a marker together with a meal (approximately at noon) on Day 4 and Day 13, respectively, and collection of stool commenced with the appearance of the first carmine red marker in the stool. The stool containing the first marker was collected and the date and time of the first stool collected was recorded on the CRF. At 72 hours following administration of the first red marker, the second carmine marker was given, and stool collection continued until the second carmine marker appeared. The stool containing the second marker was not collected, but the date and time of the appearance of the second marker was recorded on the CRF. Diapers were weighed before placement and after removal and the difference in weight was recorded on the CRF. The times of each collection and the elapsed duration of the entire collection period was also recorded on the CRF. The use of ointments for the treatment of skin irritation was prohibited during the stool collection period. Diapers were to be changed frequently during the collection period to keep the skin dry. Patients with skin rash severity leading to discontinuation of the stool collection were to be withdrawn from the study. Specific collection methods were provided in a separate laboratory manual. If applicable, vomit from the stool collection periods of both treatment periods was weighed. A small cloth/linen was weighed and placed under the head of each infant. When the cloth/linen was soiled with vomit, it was removed and re-weighed. If an additional cloth was used to remove vomit from the infant, that cloth was also weighed before and after use. The weight of vomit (total weight minus the weight of the cloth/linen) was recorded on the CRF. All other feed losses, e.g., formula or milk left in bottle, were measured and the amount accounted for in the calculation of the volume of formula consumed at each feeding.
Feces samples, the formula (study 020) and the milk aliquots (study 021) were analyzed by a central laboratory. Individual fatty acids, including the long-chain polyunsaturated fatty acids DHA and AA, were quantified in feces and feed by a gas chromatographic method following extraction by the Folch method. In both studies, the Omegawax 250 column (Supelco) was used for separation of the fatty acids. However, due to co-elution of DHA with nervonic acid (C24:1), which was only present in the breast milk, samples from patients of the per-protocol analysis set from study 021 were also analyzed using a SP-2380 column (Supelco) in order to quantify DHA for those samples from study 021. […] Total lipids were calculated as the sum of the individual fatty acids. (See Section 7.5.1). The same analytical principle was used to determine lipids in each of the batches of formula and aliquots of breast milk used in the study. […]

[1] = BVT.BSSL-020 (infant formula), 72-hour collection period
[2] = BVT.BSSL-021 (pasteurized breast milk)

B1: rhBSSL: recombinant human bile-salt-stimulated lipase, SEQ ID. NO. 1, expressed from recombinant CHO cells; used in both clinical trials (protein, listed as Homo sapiens)
chain: AKLGAVYTEGGFVEGVNKKLGLLGDSVDIFKGIPFAAPTKALENPQPHPGWQGTLKAKNFKKRCLQATITQDSTYGDEDCLYLNIWVPQGRKQVSRDLPVMIWIYGGAFLMGSGHGANFLNNYLYDGEEIATRGNVIVVTFNYRVGPLGFLSTGDANLPGNYGLRDQHMAIAWVKRNIAAFGGDPNNITLFGESAGGASVSLQTLSPYNKGLIRRAISQSGVALSPWVIQKNPLFWAKKVAEKVGCPVGDAARMAQCLKVTDPRALTLAYKVPLAGLEYPMLHYVGFVPVIDGDFIPADPINLYANAADIDYIAGTNNMDGHIFASIDMPAINKGNKKVTEEDFYKLVSEFTITKGLRGAKTTFDVYTESWAQDPSQENKKKTVVDFETDVLFLVPTEIALAQHRANAKSAKTYAYLFSHPSRMPVYPKWVGADHADDIQYVFGKPFATPTGYRPQDRTVSKAMIAYWTNFAKTGDPNMGDSAVPTHWEPYTTENSGYLEITKKMGSSSMKRSLRTNFLRYWTLTYLALPTVTDQEATPVPPTGDSEATPVPPTGDSETAPVPPTGDSGAPPVPPTGDSGAPPVPPTGDSGAPPVPPTGDSGAPPVPPTGDSGAPPVPPTGDSGAPPVPPTGDSGAPPVPPTGDAGPPPVPPTGDSGAPPVPPTGDSGAPPVTPTGDSETAPVPPTGDSGAPPVPPTGDSEAAPVPPTDDSKEAQMPAVIRF
CFA (overall), LS Mean (BVT.BSSL-020 (infant formula)): 69.46% | CFA (overall), LS Mean Difference (rhBSSL − Placebo) (BVT.BSSL-020 (infant formula)): 2.08% | CFA (overall), Maximum (BVT.BSSL-020 (infant formula)): 89.0% | CFA (overall), Mean (SD) (BVT.BSSL-020 (infant formula)): 69.55 (14.452) % | CFA (overall), Median (BVT.BSSL-020 (infant formula)): 70.99% | CFA (overall), Minimum (BVT.BSSL-020 (infant formula)): 36.8% | CFA for C12:0 (BVT.BSSL-020 (infant formula)): 89.70% | CFA for C12:0, Difference (rhBSSL − Placebo) (BVT.BSSL-020 (infant formula)): 1.18% | CFA for C14:0 (BVT.BSSL-020 (infant formula)): 76.56% | CFA for C14:0, Difference (rhBSSL − Placebo) (BVT.BSSL-020 (infant formula)): 3.19% | CFA for C16:0 (BVT.BSSL-020 (infant formula)): 46.95% | CFA for C16:0, Difference (rhBSSL − Placebo) (BVT.BSSL-020 (infant formula)): 0.45% | CFA for C18:0 (BVT.BSSL-020 (infant formula)): 42.20% | CFA for C18:0, Difference (rhBSSL − Placebo) (BVT.BSSL-020 (infant formula)): −1.10% | CFA for C18:1 (BVT.BSSL-020 (infant formula)): 76.24% | CFA for C18:1, Difference (rhBSSL − Placebo) (BVT.BSSL-020 (infant formula)): 2.37% | CFA for C18:2 n-6 (BVT.BSSL-020 (infant formula)): 83.91% | CFA for C18:2 n-6, Difference (rhBSSL − Placebo) (BVT.BSSL-020 (infant formula)): 4.99% | CFA for C18:3 n-3 (BVT.BSSL-020 (infant formula)): 87.79% | CFA for C18:3 n-3, Difference (rhBSSL − Placebo) (BVT.BSSL-020 (infant formula)): 4.42% | CFA for C20:4 n-6 (AA) (BVT.BSSL-020 (infant formula)): 82.96% | CFA for C20:4 n-6 (AA), Difference (rhBSSL − Placebo) (BVT.BSSL-020 (infant formula)): 7.14% | CFA for C22:6 n-3 (DHA) (BVT.BSSL-020 (infant formula)): 81.15% | CFA for C22:6 n-3 (DHA), Difference (rhBSSL − Placebo) (BVT.BSSL-020 (infant formula)): 6.85% | Total Amount of Fat in Stool, Maximum [1]: 15.0 g | Total Amount of Fat in Stool, Mean (SD) [1]: 8.53 g and 8.53 (3.416) g | Total Amount of Fat in Stool, Median [1]: 8.63 g | Total Amount of Fat in Stool, Minimum [1]: 3.2 g | Coefficient of absorption of the sum of all LCPUFAs, LS mean (BVT.BSSL-020 Formula): 82.2% | Coefficient of absorption of the sum of all LCPUFAs, LS mean difference (rhBSSL-Placebo) (BVT.BSSL-020 Formula): 7.01% | Coefficient of absorption of the sum of all polyunsaturated fatty acids, LS mean (BVT.BSSL-020 Formula): 84.0% | Coefficient of absorption of the sum of all polyunsaturated fatty acids, LS mean difference (rhBSSL-Placebo) (BVT.BSSL-020 Formula): 5.05% | Coefficient of absorption of the sum of all saturated fatty acids, LS mean (BVT.BSSL-020 Formula): 61.4% | Coefficient of absorption of the sum of all saturated fatty acids, LS mean difference (rhBSSL-Placebo) (BVT.BSSL-020 Formula): 0.08% | Coefficient of absorption of the sum of all unsaturated fatty acids, LS mean (BVT.BSSL-020 Formula): 78.8% | Coefficient of absorption of the sum of all unsaturated fatty acids, LS mean difference (rhBSSL-Placebo) (BVT.BSSL-020 Formula): 3.25% | Coefficient of absorption of the sum of all LCPUFAs, LS mean (BVT.BSSL-020 and 021 Combined): 76.1% | Coefficient of absorption of the sum of all LCPUFAs, LS mean difference (rhBSSL-Placebo) (BVT.BSSL-020 and 021 Combined): 7.33% | Coefficient of absorption of the sum of all polyunsaturated fatty acids, LS mean (BVT.BSSL-020 and 021 Combined): 77.3% | Coefficient of absorption of the sum of all polyunsaturated fatty acids, LS mean difference (rhBSSL-Placebo) (BVT.BSSL-020 and 021 Combined): 5.82% | Coefficient of absorption of the sum of all saturated fatty acids, LS mean (BVT.BSSL-020 and 021 Combined): 63.8% | Coefficient of absorption of the sum of all saturated fatty acids, LS mean difference (rhBSSL-Placebo) (BVT.BSSL-020 and 021 Combined): 2.25% | Coefficient of absorption of the sum of all unsaturated fatty acids, LS mean (BVT.BSSL-020 and 021 Combined): 74.7% | Coefficient of absorption of the sum of all unsaturated fatty acids, LS mean difference (rhBSSL-Placebo) (BVT.BSSL-020 and 021 Combined): 4.22% | CFA (overall), LS Mean [2]: 68.56% | CFA (overall), LS Mean Difference (rhBSSL − Placebo) [2]: 4.86% | CFA (overall), Maximum [2]: 93.2% | CFA (overall), Mean (SD) [2]: 68.46 (15.333) % | CFA (overall), Median [2]: 75.41% | CFA (overall), Minimum [2]: 31.2% | CFA for C12:0 [2]: 87.94% | CFA for C12:0, Difference (rhBSSL − Placebo) [2]: 3.50% | CFA for C14:0 [2]: 75.49% | CFA for C14:0, Difference (rhBSSL − Placebo) [2]: 5.94* % | CFA for C16:0 [2]: 63.88% | CFA for C16:0, Difference (rhBSSL − Placebo) [2]: 4.46% | CFA for C16:1 [2]: 96.24% | CFA for C16:1, Difference (rhBSSL − Placebo) [2]: 0.45% | CFA for C18:0 [2]: 46.11% | CFA for C18:0, Difference (rhBSSL − Placebo) [2]: 3.63% | CFA for C18:1 [2]: 71.01% | CFA for C18:1, Difference (rhBSSL − Placebo) [2]: 4.77% | CFA for C18:2 n-6 [2]: 71.26% | CFA for C18:2 n-6, Difference (rhBSSL − Placebo) [2]: 6.98* % | CFA for C18:3 n-3 [2]: 64.39% | CFA for C18:3 n-3, Difference (rhBSSL − Placebo) [2]: 2.04% | CFA for C18:3 n-6 [2]: 63.94% | CFA for C18:3 n-6, Difference (rhBSSL − Placebo) [2]: 5.82% | CFA for C20:1 [2]: 52.09% | CFA for C20:1, Difference (rhBSSL − Placebo) [2]: 8.53% | CFA for C20:2 n-6 [2]: 53.09% | CFA for C20:2 n-6, Difference (rhBSSL − Placebo) [2]: 8.37* % | CFA for C20:3 n-6 (sum of C20:3 n-6 and C20:3 n-3) [2]: 67.39§ %
